Source: patent publication US12630600B2 (MEDIMMUNE LIMITED, priority 2022, dated 2026)
Starred links: 1 amine or outer side, 2 acyl side, 3 side chain; linkers in the order of their positions; H or OH if unused. Non-standard residues stand in square brackets, D forms with d. Groups on a side chain read outwards from the residue. No end group written: not given here. *: point of attachment. C20 diacid = O=C(O)CCCCCCCCCCCCCCCCCCC(=O)*; C18 diacid = O=C(O)CCCCCCCCCCCCCCCCC(=O)*; γGlu = O=C(O)[C@H](CCC(=O)[*:2])N[*:1]; αMeF = C[C@](N)(Cc1ccccc1)C(=O)O; AEEA = NCCOCCOCC(=O)O; Aib = CC(C)(N)C(=O)O

B1: Peptide 499 (peptide)
peptide: H[Aib]QGTFTSDVSK[αMeF]LDTK([AEEA-AEEA-γGlu-C18 diacid])RAQDFVQWLLR[Aib]A-OH
modifications: N-terminus assumed
SMILES: CC(C)C[C@H](NC(=O)[C@H](Cc1c[nH]c2ccccc12)NC(=O)[C@H](CCC(N)=O)NC(=O)[C@@H](NC(=O)[C@H](Cc1ccccc1)NC(=O)[C@H](CC(=O)O)NC(=O)[C@H](CCC(N)=O)NC(=O)[C@H](C)NC(=O)[C@H](CCCNC(=N)N)NC(=O)[C@H](CCCCNC(=O)COCCOCCNC(=O)COCCOCCNC(=O)CC[C@H](NC(=O)CCCCCCCCCCCCCCCCC(=O)O)C(=O)O)NC(=O)[C@@H](NC(=O)[C@H](CC(=O)O)NC(=O)[C@H](CC(C)C)NC(=O)[C@](C)(Cc1ccccc1)NC(=O)[C@H](CCCCN)NC(=O)[C@H](CO)NC(=O)[C@@H](NC(=O)[C@H](CC(=O)O)NC(=O)[C@H](CO)NC(=O)[C@@H](NC(=O)[C@H](Cc1ccccc1)NC(=O)[C@@H](NC(=O)CNC(=O)[C@H](CCC(N)=O)NC(=O)C(C)(C)NC(=O)[C@@H](N)Cc1c[nH]cn1)[C@@H](C)O)[C@@H](C)O)C(C)C)[C@@H](C)O)C(C)C)C(=O)N[C@@H](CC(C)C)C(=O)N[C@@H](CCCNC(=N)N)C(=O)NC(C)(C)C(=O)N[C@@H](C)C(=O)O
B2: Peptide 501 (peptide)
peptide: H[Aib]QGTFTSDVSK[αMeF]LDTK([AEEA-AEEA-γGlu-C18 diacid])RARDFVQWLLR[Aib]A-OH
modifications: N-terminus assumed
SMILES: CC(C)C[C@H](NC(=O)[C@H](Cc1c[nH]c2ccccc12)NC(=O)[C@H](CCC(N)=O)NC(=O)[C@@H](NC(=O)[C@H](Cc1ccccc1)NC(=O)[C@H](CC(=O)O)NC(=O)[C@H](CCCNC(=N)N)NC(=O)[C@H](C)NC(=O)[C@H](CCCNC(=N)N)NC(=O)[C@H](CCCCNC(=O)COCCOCCNC(=O)COCCOCCNC(=O)CC[C@H](NC(=O)CCCCCCCCCCCCCCCCC(=O)O)C(=O)O)NC(=O)[C@@H](NC(=O)[C@H](CC(=O)O)NC(=O)[C@H](CC(C)C)NC(=O)[C@](C)(Cc1ccccc1)NC(=O)[C@H](CCCCN)NC(=O)[C@H](CO)NC(=O)[C@@H](NC(=O)[C@H](CC(=O)O)NC(=O)[C@H](CO)NC(=O)[C@@H](NC(=O)[C@H](Cc1ccccc1)NC(=O)[C@@H](NC(=O)CNC(=O)[C@H](CCC(N)=O)NC(=O)C(C)(C)NC(=O)[C@@H](N)Cc1c[nH]cn1)[C@@H](C)O)[C@@H](C)O)C(C)C)[C@@H](C)O)C(C)C)C(=O)N[C@@H](CC(C)C)C(=O)N[C@@H](CCCNC(=N)N)C(=O)NC(C)(C)C(=O)N[C@@H](C)C(=O)O
B3: Peptide 500 (peptide)
peptide: H[Aib]QGTFTSDVSK[αMeF]LDTK([AEEA-AEEA-γGlu-C20 diacid])RAQDFVQWLLR[Aib]A-OH
modifications: N-terminus assumed
SMILES: CC(C)C[C@H](NC(=O)[C@H](Cc1c[nH]c2ccccc12)NC(=O)[C@H](CCC(N)=O)NC(=O)[C@@H](NC(=O)[C@H](Cc1ccccc1)NC(=O)[C@H](CC(=O)O)NC(=O)[C@H](CCC(N)=O)NC(=O)[C@H](C)NC(=O)[C@H](CCCNC(=N)N)NC(=O)[C@H](CCCCNC(=O)COCCOCCNC(=O)COCCOCCNC(=O)CC[C@H](NC(=O)CCCCCCCCCCCCCCCCCCC(=O)O)C(=O)O)NC(=O)[C@@H](NC(=O)[C@H](CC(=O)O)NC(=O)[C@H](CC(C)C)NC(=O)[C@](C)(Cc1ccccc1)NC(=O)[C@H](CCCCN)NC(=O)[C@H](CO)NC(=O)[C@@H](NC(=O)[C@H](CC(=O)O)NC(=O)[C@H](CO)NC(=O)[C@@H](NC(=O)[C@H](Cc1ccccc1)NC(=O)[C@@H](NC(=O)CNC(=O)[C@H](CCC(N)=O)NC(=O)C(C)(C)NC(=O)[C@@H](N)Cc1c[nH]cn1)[C@@H](C)O)[C@@H](C)O)C(C)C)[C@@H](C)O)C(C)C)C(=O)N[C@@H](CC(C)C)C(=O)N[C@@H](CCCNC(=N)N)C(=O)NC(C)(C)C(=O)N[C@@H](C)C(=O)O

biological target: human GLP-1 receptor (human, UniProt P43220); assay: cell-based or functional assay

cAMP production EC50 [nM]	Binder
0.0406	B1
0.0265	B2
0.102	B3

biological target: human glucagon receptor (human, UniProt P47871); assay: cell-based or functional assay

cAMP production EC50 [nM]	Binder
0.0788	B1
0.0756	B2
0.101	B3
